Measurements: patent US20090298765A1 (Takeda / Millennium, published 2009)
Starred links: 1 amine or outer side, 2 acyl side, 3 side chain; linkers in the order of their positions; H or OH if unused. Non-standard residues stand in square brackets, D forms with d. No end group written: not given here. *: point of attachment. Phe(F5) = N[C@@H](Cc1c(F)c(F)c(F)c(F)c1F)C(=O)O; Tyr(Me) = COc1ccc(C[C@H](N[*:1])C(=O)[*:2])cc1; Arg(Me) = CNC(=N)NCCC[C@H](N)C(=O)O; Fmoc = O=C(OCC1c2ccccc2-c2ccccc21)*; Lys(Me2) = CN(C)CCCC[C@H](N)C(=O)O; Abu = CC[C@H](N)C(=O)O; azaGly = NNC(=O)O

B1: [D-Tyr1,Ser3,Arg(Me)9]MS10 (peptide)
peptide: [dY]NSNSFGL[Arg(Me)]F-NH2
modifications: N-terminus assumed
SMILES: CNC(=N)NCCC[C@H](NC(=O)[C@H](CC(C)C)NC(=O)CNC(=O)[C@H](Cc1ccccc1)NC(=O)[C@H](CO)NC(=O)[C@H](CC(N)=O)NC(=O)[C@H](CO)NC(=O)[C@H](CC(N)=O)NC(=O)[C@H](N)Cc1ccc(O)cc1)C(=O)N[C@@H](Cc1ccccc1)C(N)=O
notes: also called Compound No. 170
B2: [D-Tyr1,Thr5,Arg(Me)9]MS10 (peptide)
peptide: [dY]NWNTFGL[Arg(Me)]F-NH2
modifications: N-terminus assumed
SMILES: CNC(=N)NCCC[C@H](NC(=O)[C@H](CC(C)C)NC(=O)CNC(=O)[C@H](Cc1ccccc1)NC(=O)[C@@H](NC(=O)[C@H](CC(N)=O)NC(=O)[C@H](Cc1c[nH]c2ccccc12)NC(=O)[C@H](CC(N)=O)NC(=O)[C@H](N)Cc1ccc(O)cc1)[C@@H](C)O)C(=O)N[C@@H](Cc1ccccc1)C(N)=O
notes: also called Compound No. 211
B3: [D-Tyr1,Arg(Me)9,Trp10]MS10 (peptide)
peptide: [dY]NWNSFGL[Arg(Me)]W-NH2
modifications: N-terminus assumed
SMILES: CNC(=N)NCCC[C@H](NC(=O)[C@H](CC(C)C)NC(=O)CNC(=O)[C@H](Cc1ccccc1)NC(=O)[C@H](CO)NC(=O)[C@H](CC(N)=O)NC(=O)[C@H](Cc1c[nH]c2ccccc12)NC(=O)[C@H](CC(N)=O)NC(=O)[C@H](N)Cc1ccc(O)cc1)C(=O)N[C@@H](Cc1c[nH]c2ccccc12)C(N)=O
notes: also called Compound No. 174
B4: [D-Tyr1,Ile3,Arg(Me)9]MS10 (peptide)
peptide: [dY]NINSFGL[Arg(Me)]F-NH2
modifications: N-terminus assumed
SMILES: CC[C@H](C)[C@H](NC(=O)[C@H](CC(N)=O)NC(=O)[C@H](N)Cc1ccc(O)cc1)C(=O)N[C@@H](CC(N)=O)C(=O)N[C@@H](CO)C(=O)N[C@@H](Cc1ccccc1)C(=O)NCC(=O)N[C@@H](CC(C)C)C(=O)N[C@@H](CCCNC(=N)NC)C(=O)N[C@@H](Cc1ccccc1)C(N)=O
notes: also called Compound No. 206
B5: [D-Tyr1,Ala3,Arg(Me)9]MS10 (peptide)
peptide: [dY]NANSFGL[Arg(Me)]F-NH2
modifications: N-terminus assumed
SMILES: CNC(=N)NCCC[C@H](NC(=O)[C@H](CC(C)C)NC(=O)CNC(=O)[C@H](Cc1ccccc1)NC(=O)[C@H](CO)NC(=O)[C@H](CC(N)=O)NC(=O)[C@H](C)NC(=O)[C@H](CC(N)=O)NC(=O)[C@H](N)Cc1ccc(O)cc1)C(=O)N[C@@H](Cc1ccccc1)C(N)=O
notes: also called Compound No. 169
B6: des(1-2)-Fmoc-MS10 (peptide)
peptide: Fmoc-WNSFGLRF-NH2
SMILES: CC(C)C[C@H](NC(=O)CNC(=O)[C@H](Cc1ccccc1)NC(=O)[C@H](CO)NC(=O)[C@H](CC(N)=O)NC(=O)[C@H](Cc1c[nH]c2ccccc12)NC(=O)OCC1c2ccccc2-c2ccccc21)C(=O)N[C@@H](CCCNC(=N)N)C(=O)N[C@@H](Cc1ccccc1)C(N)=O
notes: also called Compound No. 54
B7: [Abu8]MS10 (peptide)
peptide: YNWNSFG[Abu]RF-NH2
modifications: N-terminus assumed
SMILES: CC[C@H](NC(=O)CNC(=O)[C@H](Cc1ccccc1)NC(=O)[C@H](CO)NC(=O)[C@H](CC(N)=O)NC(=O)[C@H](Cc1c[nH]c2ccccc12)NC(=O)[C@H](CC(N)=O)NC(=O)[C@@H](N)Cc1ccc(O)cc1)C(=O)N[C@@H](CCCNC(=N)N)C(=O)N[C@@H](Cc1ccccc1)C(N)=O
notes: also called Compound No. 187
B8: des(1)-[D-Tyr2,AzaGly7,Arg(Me)9]MS10 (peptide)
peptide: [dY]WNSF[azaGly]L[Arg(Me)]F-NH2
modifications: N-terminus assumed
SMILES: CNC(=N)NCCC[C@H](NC(=O)[C@H](CC(C)C)NC(=O)NNC(=O)[C@H](Cc1ccccc1)NC(=O)[C@H](CO)NC(=O)[C@H](CC(N)=O)NC(=O)[C@H](Cc1c[nH]c2ccccc12)NC(=O)[C@H](N)Cc1ccc(O)cc1)C(=O)N[C@@H](Cc1ccccc1)C(N)=O
notes: also called Compound No. 222
B9: Metastin (peptide)
peptide: GTSLSPPPESSGSRQQPGLSAPHSRQIPAPQGAVLVQREKDLPNYNWNSFGLRF
B10: [D-Tyr1,Ala7,Arg(Me)9]MS10 (Compound No. 173) (peptide)
peptide: [dY]NWNSFAL[Arg(Me)]F-NH2
modifications: N-terminus assumed
SMILES: CNC(=N)NCCC[C@H](NC(=O)[C@H](CC(C)C)NC(=O)[C@H](C)NC(=O)[C@H](Cc1ccccc1)NC(=O)[C@H](CO)NC(=O)[C@H](CC(N)=O)NC(=O)[C@H](Cc1c[nH]c2ccccc12)NC(=O)[C@H](CC(N)=O)NC(=O)[C@H](N)Cc1ccc(O)cc1)C(=O)N[C@@H](Cc1ccccc1)C(N)=O

Target: T1, human OT7T175 (metastin receptor) (human, UniProt Q969F8 1-398)
T1 construct: expressed on CHO cells; also called hOT7T175; hOT7T175-expressed CHO cells
T1 sequence (Q969F8 whole entry L364H): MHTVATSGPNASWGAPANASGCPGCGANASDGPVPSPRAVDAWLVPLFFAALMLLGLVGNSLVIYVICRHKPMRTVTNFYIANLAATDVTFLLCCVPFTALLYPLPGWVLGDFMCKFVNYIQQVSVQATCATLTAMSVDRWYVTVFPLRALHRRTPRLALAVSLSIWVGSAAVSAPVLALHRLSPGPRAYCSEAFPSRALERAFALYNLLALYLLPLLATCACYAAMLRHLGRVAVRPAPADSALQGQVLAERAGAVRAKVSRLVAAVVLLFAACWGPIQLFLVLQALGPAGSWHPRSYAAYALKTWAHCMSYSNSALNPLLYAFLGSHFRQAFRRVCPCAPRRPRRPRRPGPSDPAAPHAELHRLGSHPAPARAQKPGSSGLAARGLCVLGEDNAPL
Test: competition with Cy-5 metastin (40-54) on hOT7T175-CHO cells, FMAT

Row | Binder | IC50
1 | YNWNSFALRF-NH2 (also called Compound No. 50) [[Ala7]MS10] | 190 nM
2 | YNWNLFGLRF-NH2 (also called Compound No. 24) [[Leu5]MS10] | 0.83 nM
3 | [dY]NWTSFGL[Arg(Me)]F-NH2 (also called Compound No. 208) [[D-Tyr1,Thr4,Arg(Me)9]MS10] | 830 nM
4 | B1 | 260 nM
5 | B2 | 44 nM
6 | B3 | 420 nM
7 | DNWNSFGLRF-NH2 (also called Compound No. 75) [[Asp1]MS10] | 880 nM
8 | YNWNSFGLR[Tyr(Me)]-NH2 (also called Compound No. 18) [[Tyr(Me)10]MS10] | 7.7 nM
9 | B4 | 85 nM
10 | YNWNSFSLRF-NH2 (also called Compound No. 101) [[Ser7]MS10] | 100 nM
11 | B5 | 160 nM
12 | B6 | 450 nM
13 | YNWNSFGLRX (Nal(2)10; C-terminal amide, also called Compound No. 110) [[Nal(2)10]MS10] | 24 nM
14 | B7 | 720 nM
15 | YNWNSFGXRF (Nle8; C-terminal amide, also called Compound No. 105) [[Nle8]MS10] | 880 nM
16 | YNWNSFGLRX (Pya(4)10; C-terminal amide, also called Compound No. 17) [[Pya(4)10]MS10] | 0.0066 nM
17 | YNWNSFGLR[Phe(F5)]-NH2 (also called Compound No. 111) [[Phe(F5)10]MS10] | 140 nM
18 | YNWNSFGLRX (Cha10; C-terminal amide, also called Compound No. 112) [[Cha10]MS10] | 370 nM
19 | B8 | 33 nM
20 | [dY]NWNSF[azaGly]L[Arg(Me)]F-NH2 (also called Compound No. 232) [[D-Tyr1,AzaGly7,Arg(Me)9]MS10] | 49 nM

Target: T1, human OT7T175 (metastin receptor)
Test: cell-based or functional assay

Row | Binder | Ca ion level-increasing activity (FLIPR)
21 | YNWNSFALRF-NH2 (also called Compound No. 50) [[Ala7]MS10] | 30 x Metastin (1-54)
22 | YNWNLFGLRF-NH2 (also called Compound No. 24) [[Leu5]MS10] | 1 x Metastin (1-54)
23 | B1 | 1 x Metastin (1-54)
24 | DNWNSFGLRF-NH2 (also called Compound No. 75) [[Asp1]MS10] | 1 x Metastin (1-54)
25 | YNWNSFGLR[Tyr(Me)]-NH2 (also called Compound No. 18) [[Tyr(Me)10]MS10] | 1 x Metastin (1-54)
26 | YNWNSFSLRF-NH2 (also called Compound No. 101) [[Ser7]MS10] | 10 x Metastin (1-54)
27 | B5 | 2 x Metastin (1-54)
28 | YNWNSFGARF-NH2 [[Ala8]MS10] | 1 x Metastin (1-54)
29 | YNWNSFGL[Lys(Me2)]F-NH2 [[Lys(Me2)9]MS10] | 0.5 x Metastin (1-54)
30 | YNWNSFGLRX (Hph10; C-terminal amide) [[Hph10]MS10] | 1 x Metastin (1-54)
31 | B6 | 5 x Metastin (1-54)
32 | B9 | 1 x Metastin (1-54)
33 | Fmoc-NSFGL[Arg(Me)]F-NH2 [des(1-3)-Fmoc-[Arg(Me)9]MS10] | 1 x Metastin (1-54)
34 | YNWNSFGLRX (Nal(2)10; C-terminal amide, also called Compound No. 110) [[Nal(2)10]MS10] | 20 x Metastin (1-54)
35 | YNWNSFGXRF (Nle8; C-terminal amide, also called Compound No. 105) [[Nle8]MS10] | 1 x Metastin (1-54)
36 | YNWNSFGLRX (Pya(4)10; C-terminal amide, also called Compound No. 17) [[Pya(4)10]MS10] | 5 x Metastin (1-54)
37 | B10 | 1 x Metastin (1-54)
38 | YNWNSFGLR[Phe(F5)]-NH2 (also called Compound No. 111) [[Phe(F5)10]MS10] | 3 x Metastin (1-54)
39 | Fmoc-NSFGLRF-NH2 [des(1-3)-Fmoc-MS10] | 1 x Metastin (1-54)
40 | YNWNSFGLRX (Cha10; C-terminal amide, also called Compound No. 112) [[Cha10]MS10] | 2 x Metastin (1-54)
41 | KNWNSFGLRF-NH2 [[Lys1]MS10] | 1 x Metastin (1-54)
42 | YKWNSFGLRF-NH2 [[Lys2]MS10] | 1 x Metastin (1-54)
43 | SNWNSFGLRF-NH2 [[Ser1]MS10] | 1 x Metastin (1-54)
44 | YNWNSXGLRF (D-Tyr1; Cha6; Arg(Me)9; C-terminal amide) [[D-Tyr1,Cha6,Arg(Me)9]MS10 (Compound No. 172)] | 1 x Metastin (1-54)
45 | Fmoc-NWNSFGLRF-NH2 [des(1)-Fmoc-MS10] | 5 x Metastin (1-54)

Target: T1, human OT7T175 (metastin receptor)
Test: cell-based or functional assay
Remark: another data set of the same source

Row | Binder | Ca ion level-increasing activity (FLIPR, 40 s)
46 | [dY]NWTSFGL[Arg(Me)]F-NH2 (also called Compound No. 208) [[D-Tyr1,Thr4,Arg(Me)9]MS10] | 7.3 EC50/MS10 EC50
47 | B2 | 1.3 EC50/MS10 EC50
48 | B3 | 2.3 EC50/MS10 EC50
49 | B4 | 4.8 EC50/MS10 EC50
50 | B7 | 1.9 EC50/MS10 EC50
51 | B8 | 2.7 EC50/MS10 EC50
52 | [dY]NWNSF[azaGly]L[Arg(Me)]F-NH2 (also called Compound No. 232) [[D-Tyr1,AzaGly7,Arg(Me)9]MS10] | 3.9 EC50/MS10 EC50

Target: T1, human OT7T175 (metastin receptor)
Test: cell-based or functional assay
Remark: another data set of the same source

Row | Binder | Ca ion level-increasing activity (FLIPR)
53 | [dY]NWTSFGL[Arg(Me)]F-NH2 (also called Compound No. 208) [[D-Tyr1,Thr4,Arg(Me)9]MS10] | 1 x Metastin (1-54)
54 | B2 | 10 x Metastin (1-54)
55 | B3 | 10 x Metastin (1-54)
56 | B4 | 10 x Metastin (1-54)
57 | B7 | 1 x Metastin (1-54)
58 | B8 | 10 x Metastin (1-54)
59 | [dY]NWNSF[azaGly]L[Arg(Me)]F-NH2 (also called Compound No. 232) [[D-Tyr1,AzaGly7,Arg(Me)9]MS10] | 3 x Metastin (1-54)
